According to US20250218531A1 (ABSCI, published 2025):
Substitutions are numbered along the chain they refer to. Values joined by “and” are separate entries in the source; they are usually repeats but may differ in a detail not shown here. Equal entries are not always repeated.

B1: Trastuzumab HCDR3 variant ARWSSGYYYMDY (Fab, V domains shown)
VH: EVQLVESGGGLVQPGGSLRLSCAASGFNIKDTYIHWVRQAPGKGLEWVARIYPTNGYTRYADSVKGRFTISADTSKNTAYLQMNSLRAEDTAVYYCARWSSGYYYMDYWGQGTLVTVSS
VL: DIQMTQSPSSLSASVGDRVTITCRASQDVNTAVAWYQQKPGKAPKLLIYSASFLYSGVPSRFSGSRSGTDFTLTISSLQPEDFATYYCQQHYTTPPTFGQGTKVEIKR
B2: Trastuzumab HCDR3 variant ARYYYGFYYFDY (Fab, V domains shown)
VH: B1 VH with W99Y, S100Y, S101Y, Y103F, M106F
VL: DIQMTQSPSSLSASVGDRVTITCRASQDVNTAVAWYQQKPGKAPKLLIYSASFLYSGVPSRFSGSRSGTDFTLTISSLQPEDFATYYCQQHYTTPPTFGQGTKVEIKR
B3: Trastuzumab HCDR3 variant ARYGLYYYYFDY (Fab, V domains shown)
VH: B1 VH with W99Y, S100G, S101L, G102Y, M106F
VL: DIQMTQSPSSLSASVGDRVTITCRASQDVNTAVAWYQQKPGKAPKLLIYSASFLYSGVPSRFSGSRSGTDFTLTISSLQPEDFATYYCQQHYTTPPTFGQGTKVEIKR
B4: Trastuzumab HCDR3 variant ATWHYGGYFMSG (Fab, V domains shown)
VH: B1 VH with R98T, S100H, S101Y, Y103G, Y105F, D107S, Y108G
VL: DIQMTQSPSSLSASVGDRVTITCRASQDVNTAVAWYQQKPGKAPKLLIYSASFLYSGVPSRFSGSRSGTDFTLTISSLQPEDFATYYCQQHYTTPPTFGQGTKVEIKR
B5: Trastuzumab HCDR3 variant ARYGGGYWYFDY (Fab, V domains shown)
VH: B1 VH with W99Y, S100G, S101G, Y104W, M106F
VL: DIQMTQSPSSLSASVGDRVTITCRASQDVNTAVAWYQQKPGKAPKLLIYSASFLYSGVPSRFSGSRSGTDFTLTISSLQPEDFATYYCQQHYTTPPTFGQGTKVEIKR
B6: Trastuzumab HCDR3 variant ATWYGGNYHMYP (Fab, V domains shown)
VH: B1 VH with R98T, S100Y, S101G, Y103N, Y105H, D107Y, Y108P
VL: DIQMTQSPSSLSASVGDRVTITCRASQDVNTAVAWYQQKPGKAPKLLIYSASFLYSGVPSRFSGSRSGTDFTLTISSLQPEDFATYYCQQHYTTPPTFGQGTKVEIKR
B7: Trastuzumab HCDR3 variant ARYGGGYYYYDY (Fab, V domains shown)
VH: B1 VH with W99Y, S100G, S101G, M106Y
VL: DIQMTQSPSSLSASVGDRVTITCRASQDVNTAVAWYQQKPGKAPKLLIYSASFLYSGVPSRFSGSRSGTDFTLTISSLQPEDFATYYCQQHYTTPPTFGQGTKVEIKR
B8: Trastuzumab HCDR3 variant ARYGLGYYYFDY (Fab, V domains shown)
VH: B1 VH with W99Y, S100G, S101L, M106F
VL: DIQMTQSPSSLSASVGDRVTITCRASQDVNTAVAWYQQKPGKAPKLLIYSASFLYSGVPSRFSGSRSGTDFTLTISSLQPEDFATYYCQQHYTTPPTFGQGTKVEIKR
B9: Trastuzumab HCDR3 variant ARYGTGNYAMDY (Fab, V domains shown)
VH: B1 VH with W99Y, S100G, S101T, Y103N, Y105A
VL: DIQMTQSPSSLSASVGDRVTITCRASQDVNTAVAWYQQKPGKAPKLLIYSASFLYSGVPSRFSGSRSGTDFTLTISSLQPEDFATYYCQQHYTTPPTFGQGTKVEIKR
B10: Trastuzumab HCDR3 variant ARYPSVVYAFGI (Fab, V domains shown)
VH: B1 VH with W99Y, S100P, G102V, Y103V, Y105A, M106F, D107G, Y108I
VL: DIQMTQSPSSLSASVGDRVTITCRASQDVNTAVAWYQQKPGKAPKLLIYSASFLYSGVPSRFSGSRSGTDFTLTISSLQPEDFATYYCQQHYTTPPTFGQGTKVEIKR
B11: Trastuzumab HCDR3 variant ARYGSYNYYFGD (Fab, V domains shown)
VH: B1 VH with W99Y, S100G, G102Y, Y103N, M106F, D107G, Y108D
VL: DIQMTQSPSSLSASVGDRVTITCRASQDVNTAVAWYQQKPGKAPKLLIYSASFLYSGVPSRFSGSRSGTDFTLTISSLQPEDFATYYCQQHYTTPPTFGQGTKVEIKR
B12: Trastuzumab HCDR3 variant ARYTFGAYYYSD (Fab, V domains shown)
VH: B1 VH with W99Y, S100T, S101F, Y103A, M106Y, D107S, Y108D
VL: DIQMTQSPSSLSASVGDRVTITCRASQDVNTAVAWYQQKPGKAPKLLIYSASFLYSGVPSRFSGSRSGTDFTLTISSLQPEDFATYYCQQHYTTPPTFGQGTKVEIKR
B13: Trastuzumab HCDR3 variant ARYGYYLYAMDY (Fab, V domains shown)
VH: B1 VH with W99Y, S100G, S101Y, G102Y, Y103L, Y105A
VL: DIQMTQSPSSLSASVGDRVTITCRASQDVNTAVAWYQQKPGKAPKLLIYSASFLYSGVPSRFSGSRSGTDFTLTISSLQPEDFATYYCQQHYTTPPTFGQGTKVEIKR
B14: Trastuzumab HCDR3 variant ARYGWGYYYFDY (Fab, V domains shown)
VH: B1 VH with W99Y, S100G, S101W, M106F
VL: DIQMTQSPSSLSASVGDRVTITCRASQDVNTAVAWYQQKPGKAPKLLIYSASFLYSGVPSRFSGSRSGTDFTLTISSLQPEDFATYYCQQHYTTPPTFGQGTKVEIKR
B15: Trastuzumab HCDR3 variant ATYGYGYYYFDY (Fab, V domains shown)
VH: B1 VH with R98T, W99Y, S100G, S101Y, M106F
VL: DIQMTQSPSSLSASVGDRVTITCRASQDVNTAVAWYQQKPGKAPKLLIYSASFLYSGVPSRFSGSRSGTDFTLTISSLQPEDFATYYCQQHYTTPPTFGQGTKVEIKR
B16: Trastuzumab HCDR3 variant ARYGLGYYYMDY (Fab, V domains shown)
VH: B1 VH with W99Y, S100G, S101L
VL: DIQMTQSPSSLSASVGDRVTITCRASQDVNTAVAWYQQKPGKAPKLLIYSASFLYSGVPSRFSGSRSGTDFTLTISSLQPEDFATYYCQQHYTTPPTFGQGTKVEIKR
B17: Trastuzumab HCDR3 variant ARWYYDYYYMDY (Fab, V domains shown)
VH: B1 VH with S100Y, S101Y, G102D
VL: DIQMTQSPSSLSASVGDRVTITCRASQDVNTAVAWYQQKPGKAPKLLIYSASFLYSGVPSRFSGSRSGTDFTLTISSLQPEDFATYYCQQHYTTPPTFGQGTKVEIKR
B18: Trastuzumab HCDR3 variant ARYPPGYYIMDF (Fab, V domains shown)
VH: B1 VH with W99Y, S100P, S101P, Y105I, Y108F
VL: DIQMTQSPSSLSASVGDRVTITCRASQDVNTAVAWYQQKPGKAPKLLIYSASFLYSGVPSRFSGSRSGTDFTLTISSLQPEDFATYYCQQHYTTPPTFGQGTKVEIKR
B19: Trastuzumab HCDR3 variant AVSADIMYGVSV (Fab, V domains shown)
VH: B1 VH with R98V, W99S, S100A, S101D, G102I, Y103M, Y105G, M106V, D107S, Y108V
VL: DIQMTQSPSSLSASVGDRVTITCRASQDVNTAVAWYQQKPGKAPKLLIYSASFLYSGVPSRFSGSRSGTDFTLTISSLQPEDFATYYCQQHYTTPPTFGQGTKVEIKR
B20: Trastuzumab HCDR3 variant ATYSPGAYYYGP (Fab, V domains shown)
VH: B1 VH with R98T, W99Y, S101P, Y103A, M106Y, D107G, Y108P
VL: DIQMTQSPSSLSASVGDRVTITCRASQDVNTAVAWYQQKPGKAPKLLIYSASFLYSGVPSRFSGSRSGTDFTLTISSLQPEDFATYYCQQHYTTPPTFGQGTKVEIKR
B21: Trastuzumab HCDR3 variant ARWSYGYYNFDY (Fab, V domains shown)
VH: B1 VH with S101Y, Y105N, M106F
VL: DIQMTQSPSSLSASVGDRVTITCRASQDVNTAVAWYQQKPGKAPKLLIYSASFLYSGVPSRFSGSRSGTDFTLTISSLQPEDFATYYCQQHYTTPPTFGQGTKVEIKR
B22: Trastuzumab HCDR3 variant ARYGVVRYDFAY (Fab, V domains shown)
VH: B1 VH with W99Y, S100G, S101V, G102V, Y103R, Y105D, M106F, D107A
VL: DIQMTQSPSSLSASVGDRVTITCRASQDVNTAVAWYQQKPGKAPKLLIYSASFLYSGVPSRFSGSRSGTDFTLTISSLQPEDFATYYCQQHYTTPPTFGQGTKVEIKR
B23: Trastuzumab HCDR3 variant TRFRSFFYNFDY (Fab, V domains shown)
VH: B1 VH with A97T, W99F, S100R, G102F, Y103F, Y105N, M106F
VL: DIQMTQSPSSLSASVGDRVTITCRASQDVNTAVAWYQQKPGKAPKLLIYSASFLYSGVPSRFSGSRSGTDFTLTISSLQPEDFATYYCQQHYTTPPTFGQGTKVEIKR
B24: Trastuzumab HCDR3 variant ARYGYYGYYMDY (Fab, V domains shown)
VH: B1 VH with W99Y, S100G, S101Y, G102Y, Y103G
VL: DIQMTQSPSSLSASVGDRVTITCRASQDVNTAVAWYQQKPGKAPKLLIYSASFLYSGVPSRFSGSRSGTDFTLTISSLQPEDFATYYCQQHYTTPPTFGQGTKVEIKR
B25: Trastuzumab HCDR3 variant STYARDYYHFGS (Fab, V domains shown)
VH: B1 VH with A97S, R98T, W99Y, S100A, S101R, G102D, Y105H, M106F, D107G, Y108S
VL: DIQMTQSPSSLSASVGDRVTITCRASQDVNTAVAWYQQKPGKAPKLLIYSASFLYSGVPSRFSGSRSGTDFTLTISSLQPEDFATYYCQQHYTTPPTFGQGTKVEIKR
B26: Trastuzumab HCDR3 variant ARYDYGYYIYVS (Fab, V domains shown)
VH: B1 VH with W99Y, S100D, S101Y, Y105I, M106Y, D107V, Y108S
VL: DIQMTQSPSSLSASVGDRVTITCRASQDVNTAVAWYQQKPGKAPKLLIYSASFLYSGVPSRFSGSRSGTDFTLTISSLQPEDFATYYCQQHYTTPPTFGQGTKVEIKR
B27: Trastuzumab HCDR3 variant TRFLIGSYYYDY (Fab, V domains shown)
VH: B1 VH with A97T, W99F, S100L, S101I, Y103S, M106Y
VL: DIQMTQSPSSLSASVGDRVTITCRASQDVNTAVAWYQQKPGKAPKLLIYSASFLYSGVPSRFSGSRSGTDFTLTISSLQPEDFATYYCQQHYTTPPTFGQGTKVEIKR
B28: Trastuzumab HCDR3 variant ARYDIGYYDMDK (Fab, V domains shown)
VH: B1 VH with W99Y, S100D, S101I, Y105D, Y108K
VL: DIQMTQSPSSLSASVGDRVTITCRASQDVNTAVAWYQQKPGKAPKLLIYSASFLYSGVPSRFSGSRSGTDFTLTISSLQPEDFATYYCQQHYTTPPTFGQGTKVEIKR
B29: Trastuzumab HCDR3 variant ARYGYGYYVMDY (Fab, V domains shown)
VH: B1 VH with W99Y, S100G, S101Y, Y105V
VL: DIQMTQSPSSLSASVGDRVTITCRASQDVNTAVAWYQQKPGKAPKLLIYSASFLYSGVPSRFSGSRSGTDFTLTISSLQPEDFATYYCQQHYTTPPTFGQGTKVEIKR
B30: Trastuzumab HCDR3 variant ARYGYDGYYFAY (Fab, V domains shown)
VH: B1 VH with W99Y, S100G, S101Y, G102D, Y103G, M106F, D107A
VL: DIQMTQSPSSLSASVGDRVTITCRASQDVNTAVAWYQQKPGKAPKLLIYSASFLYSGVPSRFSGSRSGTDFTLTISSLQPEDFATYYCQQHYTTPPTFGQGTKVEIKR
B31: Trastuzumab HCDR3 variant ARYGRGYYYFDY (Fab, V domains shown)
VH: B1 VH with W99Y, S100G, S101R, M106F
VL: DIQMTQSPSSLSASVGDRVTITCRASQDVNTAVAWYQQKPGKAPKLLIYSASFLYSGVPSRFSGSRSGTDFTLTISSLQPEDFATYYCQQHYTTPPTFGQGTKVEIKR
B32: Trastuzumab HCDR3 variant ARYGGGFYAMDY (Fab, V domains shown)
VH: B1 VH with W99Y, S100G, S101G, Y103F, Y105A
VL: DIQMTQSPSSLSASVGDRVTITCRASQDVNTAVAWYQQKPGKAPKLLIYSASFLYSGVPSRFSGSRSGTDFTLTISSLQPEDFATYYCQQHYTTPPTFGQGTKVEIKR
B33: Trastuzumab HCDR3 variant TRNSFGFYAMDY (Fab, V domains shown)
VH: B1 VH with A97T, W99N, S101F, Y103F, Y105A
VL: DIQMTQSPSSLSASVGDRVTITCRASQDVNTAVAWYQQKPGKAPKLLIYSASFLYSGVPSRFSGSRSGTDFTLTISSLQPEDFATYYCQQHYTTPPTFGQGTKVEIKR
B34: Trastuzumab HCDR3 variant ARYGYYSYAMDY (Fab, V domains shown)
VH: B1 VH with W99Y, S100G, S101Y, G102Y, Y103S, Y105A
VL: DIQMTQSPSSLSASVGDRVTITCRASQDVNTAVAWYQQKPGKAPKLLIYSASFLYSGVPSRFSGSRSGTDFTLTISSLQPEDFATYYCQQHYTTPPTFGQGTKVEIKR
B35: Trastuzumab HCDR3 variant ARYFGGSYAYVY (Fab, V domains shown)
VH: B1 VH with W99Y, S100F, S101G, Y103S, Y105A, M106Y, D107V
VL: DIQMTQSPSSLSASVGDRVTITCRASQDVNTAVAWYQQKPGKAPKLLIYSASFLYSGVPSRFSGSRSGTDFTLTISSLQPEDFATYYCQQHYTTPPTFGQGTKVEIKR
B36: Trastuzumab HCDR3 variant ATYSFGAYYYVF (Fab, V domains shown)
VH: B1 VH with R98T, W99Y, S101F, Y103A, M106Y, D107V, Y108F
VL: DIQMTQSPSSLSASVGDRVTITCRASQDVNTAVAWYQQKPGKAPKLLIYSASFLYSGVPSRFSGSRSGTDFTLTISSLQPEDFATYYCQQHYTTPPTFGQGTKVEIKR
B37: Trastuzumab HCDR3 variant ARYGSYFYYMDY (Fab, V domains shown)
VH: B1 VH with W99Y, S100G, G102Y, Y103F
VL: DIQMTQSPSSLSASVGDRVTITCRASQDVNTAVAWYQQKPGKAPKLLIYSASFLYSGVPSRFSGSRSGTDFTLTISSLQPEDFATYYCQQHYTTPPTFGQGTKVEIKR
B38: Trastuzumab HCDR3 variant ARYPGYYYYFDY (Fab, V domains shown)
VH: B1 VH with W99Y, S100P, S101G, G102Y, M106F
VL: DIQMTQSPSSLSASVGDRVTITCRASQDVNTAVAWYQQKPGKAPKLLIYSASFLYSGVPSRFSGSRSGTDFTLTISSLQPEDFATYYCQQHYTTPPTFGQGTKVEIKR
B39: Trastuzumab HCDR3 variant ARYGGYYYYMDY (Fab, V domains shown)
VH: B1 VH with W99Y, S100G, S101G, G102Y
VL: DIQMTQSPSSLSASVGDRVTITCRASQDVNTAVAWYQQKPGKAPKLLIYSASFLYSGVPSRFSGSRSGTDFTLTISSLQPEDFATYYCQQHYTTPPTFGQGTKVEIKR
B40: Trastuzumab HCDR3 variant ARYGGFYYYFDY (Fab, V domains shown)
VH: B1 VH with W99Y, S100G, S101G, G102F, M106F
VL: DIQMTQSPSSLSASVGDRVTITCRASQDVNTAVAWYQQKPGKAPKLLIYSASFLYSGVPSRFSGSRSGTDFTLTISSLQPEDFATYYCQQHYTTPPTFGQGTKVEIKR
B41: Trastuzumab HCDR3 variant AVYSPDFYYLGY (Fab, V domains shown)
VH: B1 VH with R98V, W99Y, S101P, G102D, Y103F, M106L, D107G
VL: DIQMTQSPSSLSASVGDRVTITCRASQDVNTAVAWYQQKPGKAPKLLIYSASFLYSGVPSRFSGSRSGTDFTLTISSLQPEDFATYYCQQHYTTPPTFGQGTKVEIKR
B42: Trastuzumab HCDR3 variant ARWYGGYYMYDY (Fab, V domains shown)
VH: B1 VH with S100Y, S101G, Y105M, M106Y
VL: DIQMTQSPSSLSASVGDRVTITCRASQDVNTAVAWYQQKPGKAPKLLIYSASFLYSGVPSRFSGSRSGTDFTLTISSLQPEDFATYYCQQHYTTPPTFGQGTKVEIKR
B43: Trastuzumab HCDR3 variant ARYGYGYYYMDY (Fab, V domains shown)
VH: B1 VH with W99Y, S100G, S101Y
VL: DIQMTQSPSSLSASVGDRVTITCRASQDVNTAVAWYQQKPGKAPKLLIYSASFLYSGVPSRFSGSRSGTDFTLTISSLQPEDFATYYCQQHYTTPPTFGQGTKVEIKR
B44: Trastuzumab HCDR3 variant ARYGAYFYAMDA (Fab, V domains shown)
VH: B1 VH with W99Y, S100G, S101A, G102Y, Y103F, Y105A, Y108A
VL: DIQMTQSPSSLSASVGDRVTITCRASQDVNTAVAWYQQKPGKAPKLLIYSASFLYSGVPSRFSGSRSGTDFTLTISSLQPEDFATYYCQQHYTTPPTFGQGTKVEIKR
B45: Trastuzumab HCDR3 variant ARWYGGYYHHDY (Fab, V domains shown)
VH: B1 VH with S100Y, S101G, Y105H, M106H
VL: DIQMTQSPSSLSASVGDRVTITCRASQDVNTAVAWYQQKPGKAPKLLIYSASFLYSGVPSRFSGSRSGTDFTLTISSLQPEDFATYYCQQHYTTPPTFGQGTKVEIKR
B46: Trastuzumab HCDR3 variant ARWYGAYYHMDY (Fab, V domains shown)
VH: B1 VH with S100Y, S101G, G102A, Y105H
VL: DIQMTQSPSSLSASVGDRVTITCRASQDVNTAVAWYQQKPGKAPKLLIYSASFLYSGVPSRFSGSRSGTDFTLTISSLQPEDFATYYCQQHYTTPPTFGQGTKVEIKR
B47: Trastuzumab HCDR3 variant ARYYYYSYAMDY (Fab, V domains shown)
VH: B1 VH with W99Y, S100Y, S101Y, G102Y, Y103S, Y105A
VL: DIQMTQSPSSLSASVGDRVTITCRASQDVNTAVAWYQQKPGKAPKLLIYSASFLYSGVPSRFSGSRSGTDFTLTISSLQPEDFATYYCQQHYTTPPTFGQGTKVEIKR
B48: Trastuzumab HCDR3 variant ATYGRDYYHFAS (Fab, V domains shown)
VH: B1 VH with R98T, W99Y, S100G, S101R, G102D, Y105H, M106F, D107A, Y108S
VL: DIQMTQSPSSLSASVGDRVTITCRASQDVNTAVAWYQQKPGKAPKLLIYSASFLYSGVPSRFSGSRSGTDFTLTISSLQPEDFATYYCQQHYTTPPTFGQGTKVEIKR
B49: Trastuzumab HCDR3 variant ARYWMGVYEFDY (Fab, V domains shown)
VH: B1 VH with W99Y, S100W, S101M, Y103V, Y105E, M106F
VL: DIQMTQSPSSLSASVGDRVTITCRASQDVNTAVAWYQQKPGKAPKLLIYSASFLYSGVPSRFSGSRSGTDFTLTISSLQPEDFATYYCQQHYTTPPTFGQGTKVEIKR
B50: Trastuzumab HCDR3 variant ARYGTIYFHFDY (Fab, V domains shown)
VH: B1 VH with W99Y, S100G, S101T, G102I, Y104F, Y105H, M106F
VL: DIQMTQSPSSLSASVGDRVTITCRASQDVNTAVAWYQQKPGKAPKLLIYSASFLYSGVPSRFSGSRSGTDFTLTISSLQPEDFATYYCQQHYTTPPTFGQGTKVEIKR
B51: Trastuzumab HCDR3 variant ARYRHWYYDYDY (Fab, V domains shown)
VH: B1 VH with W99Y, S100R, S101H, G102W, Y105D, M106Y
VL: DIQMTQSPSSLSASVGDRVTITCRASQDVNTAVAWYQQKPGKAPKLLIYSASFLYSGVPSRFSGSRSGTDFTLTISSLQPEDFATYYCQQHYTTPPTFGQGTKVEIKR
B52: Trastuzumab HCDR3 variant ARWYGYYYYFDV (Fab, V domains shown)
VH: B1 VH with S100Y, S101G, G102Y, M106F, Y108V
VL: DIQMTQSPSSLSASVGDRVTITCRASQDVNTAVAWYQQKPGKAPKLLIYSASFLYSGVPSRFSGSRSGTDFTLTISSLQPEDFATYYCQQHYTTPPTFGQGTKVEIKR
B53: Trastuzumab HCDR3 variant ARYGYGYFYMDY (Fab, V domains shown)
VH: B1 VH with W99Y, S100G, S101Y, Y104F
VL: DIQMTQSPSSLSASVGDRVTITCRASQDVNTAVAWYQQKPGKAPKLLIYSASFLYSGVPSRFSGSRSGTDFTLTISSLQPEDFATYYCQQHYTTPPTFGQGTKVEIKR

Biological target: T1, HER2 (human epidermal growth factor receptor 2) (human, UniProt P04626 23-629)
T1 construct: also called Antigen: HER2
Test: SPR

| Binder | Kd | log(KD (M)) |
| --- | --- | --- |
| B1 | 12 nM | -7.92 |
| B2 | 1.21 nM | -8.92 |
| B3 | 15.5 nM | -7.81 |
| B4 | 22.5 nM and 22.4 nM | -7.65 |
| B5 | 23.4 nM | -7.63 |
| B6 | 11.2 nM | -7.95 |
| B7 | 9.11 nM | -8.04 |
| B8 | 15.7 nM | -7.8 |
| B9 | 26.3 nM | -7.58 |
| B10 | 22.3 nM | -7.65 |
| B11 | 13.6 nM | -7.87 |
| B12 | 10.9 nM | -7.96 |
| B13 | 10.1 nM | -7.99 |
| B14 | 14.7 nM | -7.83 |
| B15 | 15.5 nM | -7.81 |
| B16 | 10.5 nM | -7.98 |
| B17 | 13.9 nM | -7.86 |
| B18 | 23.5 nM | -7.63 |
| B19 | 22.9 nM | -7.64 |
| B20 | 17.3 nM and 17.2 nM | -7.76 |
| B21 | 1.98 nM | -8.7 |
| B22 | 20.5 nM | -7.69 |
| B23 | 5.4 nM | -8.27 |
| B24 | 23.3 nM | -7.63 |
| B25 | 12.6 nM | -7.9 |
| B26 | 9.49 nM | -8.02 |
| B27 | 11.6 nM | -7.93 |

| Binder | Kd | log(KD (M)) |
| --- | --- | --- |
| B28 | 27 nM | -7.57 |
| B29 | 8.65 nM | -8.06 |
| B30 | 22.2 nM | -7.65 |
| B31 | 26.8 nM | -7.57 |
| B32 | 22.4 nM | -7.65 |
| B33 | 19 nM | -7.72 |
| B34 | 10.2 nM | -7.99 |
| B35 | 11.2 nM | -7.95 |
| B36 | 4.73 nM | -8.33 |
| B37 | 6.53 nM | -8.19 |
| B38 | 17.9 nM | -7.75 |
| B39 | 16.3 nM | -7.79 |
| B40 | 6.17 nM | -8.21 |
| B41 | 2.06 nM | -8.69 |
| B42 | 19.1 nM | -7.72 |
| B43 | 12.2 nM | -7.91 |
| B44 | 18.6 nM | -7.73 |
| B45 | 8.57 nM | -8.07 |
| B46 | 5.59 nM | -8.25 |
| B47 | 6.9 nM | -8.16 |
| B48 | 7.55 nM | -8.12 |
| B49 | 21.7 nM | -7.66 |
| B50 | 23.9 nM | -7.62 |
| B51 | 6.15 nM | -8.21 |
| B52 | 11.2 nM | -7.95 |
| B53 | 21.9 nM | -7.66 |
